In patent US20150005237A1, “PEPTIDIC INHIBITOR OF SIGNAL TRANSMISSION FROM G-ALPHA-S TO G-ALPHA-I-COUPLED RECEPTOR CASCADES” (UNIVERSITÄT INNSBRUCK, priority 2011, published 2015):

Tests used:
[1] = molecular target: Gαi of δOR-HEK293 cells (endogenous, receptor-activated); assay: cell-based or functional assay
[2] = molecular target: Gαi3 transiently overexpressed in COS7 cells; assay: cAMP agarose precipitation from COS7 lysates after 15 min forskolin, immunoblot densitometry

sensitivity of the MAPK pathway (SNC80-mediated ERK1/2 phosphorylation) to stimulation by the δOR agonist [1] [fold] | fold enrichment of R:Gαi3 complexes (forskolin pre-treatment against basal conditions) [2] [fold] | Substance
7 | – | endogenous PKA regulatory subunits (R; RII/RegII) of δOR-HEK293 cells, cAMP-activated
– | 3.8 | endogenous PKA regulatory subunits (R/Reg) of COS7 cells, bound to 2AHA-cAMP-coupled agarose beads
